Measured values from the supplement of paper PMC9732359.
± gives the uncertainty stated by the source.

Test: protein stability index of a GFP-peptide fusion (yeast GPS) (PSI 1-4); higher = more stable; sorted into four equal gates, so the index is relative within each strain
Summary of the method: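 Peptides tiling yeast proteins in 17-residue segments were fused downstream of GFP, with Cherry expressed from the same plasmid. As a pooled library in yeast, mid-log cultures grown in leucine-free medium were sorted into four equal gates by GFP/Cherry fluorescence ratio. Gate plasmids were PCR-amplified and Illumina-sequenced, and barcodes linked reads to strains. Each peptide received a protein stability index equal to the sum of each gate's read frequency times its gate number.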

Row | Sequence | protein stability index (doa10∆) | protein stability index (pdr5∆) | protein stability index (san1∆) | protein stability index (ubr1∆)
1 | MYCRPAPSDFSENQRQI [GRR1] | 3.13 ± 0.085 | 2.62 ± 0.084 | 3.02 ± 0.078 | 2.66 ± 0.082
2 | GLVCADTFRAGAFDQLK [SRP54] | 3.14 ± 0.1 | 3.54 ± 0.1 | 3.34 ± 0.11 | 3.25 ± 0.084
3 | KNDSAEVRQETQPKAEA [NUT1] | 3.35 ± 0.15 | 3.26 ± 0.11 | 3.36 ± 0.055 | 3.38 ± 0.083
4 | YSSILGNSFNKSSNDTI [YCG1] | 2.5 ± 0.048 | 2.77 ± 0.042 | 2.62 ± 0.037 | 2.81 ± 0.049
5 | VDSISLHKIFYKVLKNN [YCG1] | 1.99 ± 0.047 | 2.32 ± 0.039 | 2.71 ± 0.037 | 2.3 ± 0.042
6 | ISVNSSSFSLTFFPRCI [POP1] | 2.55 ± 0.03 | 2.66 ± 0.035 | 2.44 ± 0.039 | 2.44 ± 0.031
7 | TDKKAFLGALKYLPHAI [PRP8] | 2.94 ± 0.12 | 2.92 ± 0.097 | 3.19 ± 0.072 | 2.96 ± 0.054
8 | DKETQLKKRAVSGVELR [POP7] | 2.7 ± 0.21 | 2.57 ± 0.26 | 2.36 ± 0.18 | 2.27 ± 0.25
9 | VVGTETRVNAQLESYEY [RRI1] | 2.72 ± 0.18 | 1.65 ± 0.11 | 3.33 ± 0.1 | 2.26 ± 0.1
10 | MLQKKLVEVEDEKIEAI [SRB7] | 3 ± 0.11 | 3.37 ± 0.1 | 3.16 ± 0.082 | 3.39 ± 0.086
11 | KVTEKVLTQLTALALKY [CSI1] | 2.24 ± 0.044 | 2 ± 0.029 | 2 ± 0.039 | 2.13 ± 0.044
12 | GKKWFEVSQFLIENGAS [NAS6] | 1.91 ± 0.084 | 1.55 ± 0.061 | 1.4 ± 0.1 | 1.49 ± 0.074
13 | VTYTEHAKRKTVTSLDV [HHF1] | 3.25 ± 0.23 |  |  | 2.68 ± 0.095
14 | FDNKSTSEEQEALLRSL [SNF2] | 3.32 ± 0.072 | 3.6 ± 0.18 | 2.68 ± 0.26 | 2.73 ± 0.2
15 | NNAHSSDLGTVVFDSNE [YMR153W/NUP53] | 2.56 ± 0.16 | 2.46 ± 0.093 | 2.24 ± 0.1 | 1.85 ± 0.082
16 | MSGTTKRLNGKRKYLDI [SSN2] |  |  |  | 3.55 ± 0.12
17 | KTEDPKGGIIASVGDIL [YML031W/NDC1] | 2.57 ± 0.067 | 2.62 ± 0.051 | 2.43 ± 0.046 | 2.12 ± 0.04
18 | KVIEEQLKHTKLALAEN [SMC4] | 1.89 ± 0.12 | 1.78 ± 0.1 | 1.32 ± 0.15 | 2.23 ± 0.098
19 | YFFQLQIRSADEPMTTF [RPC11] | 2.77 ± 0.063 | 2.91 ± 0.068 | 3.06 ± 0.058 | 3.26 ± 0.071
20 | RMVRSIMWQLLDGVSYL [SSN3] | 1.27 ± 0.078 | 1.26 ± 0.1 | 1.18 ± 0.12 | 1.34 ± 0.1
21 | SYVVPRLYLKDQTNHIE [ECM29] | 2.62 ± 0.076 | 1.83 ± 0.046 | 2.83 ± 0.056 | 2.15 ± 0.033
22 | PGVDVSAEEQLRKIDML [SRB7] | 2.9 ± 0.084 | 2.61 ± 0.061 | 2.31 ± 0.072 | 2.67 ± 0.043
23 | AYIKLLDQTKDTRITHL [SNF2] | 2.65 ± 0.085 | 3.03 ± 0.072 | 2.78 ± 0.06 | 2.39 ± 0.062
24 | SLLLSSSFKEDCLSFAP [SSN2] | 2.56 ± 0.24 | 3.17 ± 0.14 | 2.76 ± 0.14 | 3.2 ± 0.19
25 | VACLFITISIHGKPTKG [SSN8] | 1.19 ± 0.061 | 1.24 ± 0.061 | 1.28 ± 0.16 | 1.5 ± 0.11
26 | YVDEQSKNELKKAFTSY [RPS16A] | 3.06 ± 0.059 | 3.21 ± 0.044 | 3.07 ± 0.051 | 3.13 ± 0.052
27 | GEMERDCMIAHGAASFL [RPB2] | 3.04 ± 0.13 | 3.08 ± 0.085 | 3.04 ± 0.073 | 2.76 ± 0.089
